According to patent US20210380647A1 (AFFILOGIC, published 2021):

How the values were obtained:
TNFa mutant S95C/G148C = molecular target: T1, TNFa mutant S95C/G148C (UniProt P01375 77-233, S95C; G148C, disulfide bridges between subunits via C95 and C148); experiment: ELISA of N11 on TNFa mutants (FIG. 12)
T1 construct: Positions probably count on the mature soluble chain; also called stabilized trimer of TNFa; stabilized TNFa trimer

TNFa mutant Y119A = molecular target: T2, TNFa mutant Y119A (UniProt P01375 77-233, Y119A); experiment: ELISA of N11 on Y119 mutants (FIG. 12A)
T2 construct: The text speaks of 'Y119 mutants'; also called Y119 mutants; Y119 TNFalpha variants
T2 sequence (P01375 77-233 Y195A): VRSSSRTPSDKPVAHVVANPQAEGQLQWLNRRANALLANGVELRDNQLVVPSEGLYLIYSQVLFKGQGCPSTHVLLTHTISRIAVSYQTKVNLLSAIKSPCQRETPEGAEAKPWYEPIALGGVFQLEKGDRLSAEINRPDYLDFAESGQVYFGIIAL

TNFa mutant Y119R = molecular target: T3, TNFa mutant Y119R (UniProt P01375 77-233, Y119R); experiment: ELISA of N11 on Y119 mutants (FIG. 12A)
T3 construct: The text speaks of 'Y119 mutants'; also called Y119 mutants; Y119 TNFalpha variants
T3 sequence (P01375 77-233 Y195R): as the sequence (P01375 77-233 Y195A) above, with A119R counted along it

murine TNFa = molecular target: T4, murine TNFa (murine, UniProt P06804 80-235); experiment: ELISA at a single concentration (EC100) on a plate functionalized with mTNFa (FIG. 3)
T4 construct: also called mTNFa; mouse TNF
T4 sequence (looked up): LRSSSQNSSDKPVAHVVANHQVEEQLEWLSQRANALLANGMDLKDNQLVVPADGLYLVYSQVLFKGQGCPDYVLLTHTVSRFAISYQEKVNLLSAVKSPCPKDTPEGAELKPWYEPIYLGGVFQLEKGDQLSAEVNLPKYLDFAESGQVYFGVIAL
Description: Biotinylated antigens are immobilized on streptavidin-coated plates as described above, except that the blocking step is performed for 1h at room temperature. For the identification of the positive clones, 100 μl of E. coli crude extracts are applied to wells with or without immobilized antigen for 1 h at RT. The binding is visualized using anti-RGSHis antibody HRP conjugate (Qiagen) which detects RGSHis6 tag from the variant and a solution at 1 mg/ml of o-phenylenediamine substrate (OPD) in revelation buffer (0.05 M citric acid, 0.05% hydrogen peroxide). Absorbance at 450 nm is measured using an ELISA plate reader. Quantitative ELISAs is done in the same manner, except purified protein is used.
A plate was functionalized with hTNFa and mTNFa.

T1 sequence (P01375 77-233 S171C/G224C): as the sequence (P01375 77-233 Y195A) above, with S95C, A119Y, G148C counted along it

- binding result (TNFa mutant S95C/G148C): no binding
- binding result (TNFa mutant Y119A): binds
- binding result (TNFa mutant Y119R): binds
- binding result (murine TNFa): binds
B1: N11 (designed binder)
chain: MVKVKFVMFGKEKEVDTSKIVHVMRQGKLVHFWYEDNGKIDKGFVPEKDAPKELLDMLARAEREK
notes: Variant of Sac7d selected by ribosome display on biotinylated hTNFa; also called Sac7d variant N11; Nanofitin N11
